Reference: article PMC11969024 (2025)

B1: peptide HD2 (from tick evasin EVA4) / CCL18 (biotinylated, synthetic) (parent complex)
chain 1: EEDDYTAYAPLTCYFT
chain 2: AQVGTNKELCCLVYTSWQIPQKFIVDYSETSPQCPKPGVILLTKRGRQICADPNKKWVQKYISDLKLNA

Variants of: B1
With chain 1 EEDDYTACAPLTCYFT the enrichment was -8.88 log2 (difference from the parental peptide).
chain 1 EEDDYTAYAPGTCYFT was tested, and the enrichment was -7.45 log2 (difference from the parental peptide).
In the case of chain 1 EENDYTAYAPLTCYFT, the enrichment is reported as -1.71 log2 (difference from the parental peptide).
In the case of chain 1 EEQDYTAYAPLTCYFT, the enrichment is reported as -2.18 log2 (difference from the parental peptide).
For chain 1 ELDDYTAYAPLTCYFT, the enrichment was -1.93 log2 (difference from the parental peptide).
With chain 1 GEDDYTAYAPLTCYFT the enrichment was -0.506 log2 (difference from the parental peptide).
chain 1 EEDDYTAYRPLTCYFT was tested, and the enrichment was -1.3 log2 (difference from the parental peptide).
In the case of chain 1 EEDDYTAYGPLTCYFT, the enrichment is reported as -3.53 log2 (difference from the parental peptide).
With chain 1 EPDDYTAYAPLTCYFT the enrichment was -2.55 log2 (difference from the parental peptide).
For chain 1 EEDDYTAYAPLTCYRT, the enrichment was -0.00139 log2 (difference from the parental peptide).
In the case of chain 1 EEDDYDAYAPLTCYFT, the enrichment is reported as 2.62 log2 (difference from the parental peptide).
With chain 1 EEDDFTAYAPLTCYFT the enrichment was -0.587 log2 (difference from the parental peptide).
With chain 1 EEDDYTAYAPPTCYFT the enrichment was -3.17 log2 (difference from the parental peptide).
With chain 1 EEDDYTATAPLTCYFT the enrichment was -4.68 log2 (difference from the parental peptide).
With chain 1 EEDDYTAYAPLTPYFT the enrichment was -7.21 log2 (difference from the parental peptide).
In the case of chain 1 EEDDYTAYAPDTCYFT, the enrichment is reported as -8.28 log2 (difference from the parental peptide).
In the case of chain 1 EEDDYTAYAPLTCIFT, the enrichment is reported as -0.627 log2 (difference from the parental peptide).
For chain 1 EEDDYTAYVPLTCYFT, the enrichment was -8.05 log2 (difference from the parental peptide).
With chain 1 EEDDYTAYAPLDCYFT the enrichment was -4.6 log2 (difference from the parental peptide).
In the case of chain 1 EEDDYTAYAPLTCAFT, the enrichment is reported as -5.59 log2 (difference from the parental peptide).
With chain 1 EEDDYLAYAPLTCYFT the enrichment was -1.51 log2 (difference from the parental peptide).
chain 1 EEVDYTAYAPLTCYFT was tested, and the enrichment was -2.61 log2 (difference from the parental peptide).
In the case of chain 1 EEDDYTAYAPLTCYIT, the enrichment is reported as 0.366 log2 (difference from the parental peptide).
With chain 1 EEDDYTFYAPLTCYFT the enrichment was -2.38 log2 (difference from the parental peptide).
chain 1 EEDDYTAYWPLTCYFT was tested, and the enrichment was -3.66 log2 (difference from the parental peptide).
With chain 1 EEDDYTAIAPLTCYFT the enrichment was -7.58 log2 (difference from the parental peptide).
chain 1 EEDDYTAYAPLTCYFM was tested, and the enrichment was 0.26 log2 (difference from the parental peptide).
For chain 1 EEDDYTAYAPLTLYFT, the enrichment was -7.42 log2 (difference from the parental peptide).
With chain 1 EEDDYTAYAPLTVYFT the enrichment was -6.58 log2 (difference from the parental peptide).
chain 1 EEDDTTAYAPLTCYFT was tested, and the enrichment was -3.47 log2 (difference from the parental peptide).
With chain 1 HEDDYTAYAPLTCYFT the enrichment was -1.83 log2 (difference from the parental peptide).
For chain 1 EEDDPTAYAPLTCYFT, the enrichment was -4.12 log2 (difference from the parental peptide).
chain 1 DEDDYTAYAPLTCYFT was tested, and the enrichment was 1.97 log2 (difference from the parental peptide).
In the case of chain 1 EEDDHTAYAPLTCYFT, the enrichment is reported as -4.35 log2 (difference from the parental peptide).
chain 1 EEDDYTAYAPLHCYFT was tested, and the enrichment was -0.953 log2 (difference from the parental peptide).
With chain 1 QEDDYTAYAPLTCYFT the enrichment was -1.1 log2 (difference from the parental peptide).
chain 1 FEDDYTAYAPLTCYFT was tested, and the enrichment was -2.72 log2 (difference from the parental peptide).
With chain 1 EEDDYTAYAPLQCYFT the enrichment was -0.825 log2 (difference from the parental peptide).
With chain 1 EEDDCTAYAPLTCYFT the enrichment was -5.9 log2 (difference from the parental peptide).
chain 1 EEPDYTAYAPLTCYFT was tested, and the enrichment was 0.322 log2 (difference from the parental peptide).
chain 1 EEDLYTAYAPLTCYFT was tested, and the enrichment was -2.06 log2 (difference from the parental peptide).
chain 1 EEDTYTAYAPLTCYFT was tested, and the enrichment was -3.75 log2 (difference from the parental peptide).
For chain 1 EEHDYTAYAPLTCYFT, the enrichment was -1.21 log2 (difference from the parental peptide).
chain 1 EEDDYTAYAPLTCYFI was tested, and the enrichment was -0.207 log2 (difference from the parental peptide).
chain 1 EEDDYTAYAPLTYYFT was tested, and the enrichment was -5.14 log2 (difference from the parental peptide).
chain 1 EEDDSTAYAPLTCYFT was tested, and the enrichment was -3.37 log2 (difference from the parental peptide).
With chain 1 EEDDYTAAAPLTCYFT the enrichment was 0.303 log2 (difference from the parental peptide).
chain 1 ECDDYTAYAPLTCYFT was tested, and the enrichment was -10.2 log2 (difference from the parental peptide).
For chain 1 EEDDYTAYAPLGCYFT, the enrichment was -8.91 log2 (difference from the parental peptide).
In the case of chain 1 EEDDGTAYAPLTCYFT, the enrichment is reported as -3.5 log2 (difference from the parental peptide).
With chain 1 TEDDYTAYAPLTCYFT the enrichment was -0.938 log2 (difference from the parental peptide).
In the case of chain 1 EEDDYTAYAPLTCLFT, the enrichment is reported as -2.62 log2 (difference from the parental peptide).
With chain 1 EEYDYTAYAPLTCYFT the enrichment was -1.47 log2 (difference from the parental peptide).
With chain 1 EEDDYTAYAPLTCYYT the enrichment was 1.67 log2 (difference from the parental peptide).
For chain 1 EEDDYTAMAPLTCYFT, the enrichment was -6.37 log2 (difference from the parental peptide).
In the case of chain 1 VEDDYTAYAPLTCYFT, the enrichment is reported as -1.49 log2 (difference from the parental peptide).
